The nature of this series: yeast display, Sf9 membrane polyspecificity reagent, FACS + sequencing; frameworks hold sequencing errors. An outline of the steps:
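Using colony PCR, genes from sorted yeast display clones were amplified, then sequenced on MiSeq at 2 × 250 and filtered by CDR length. The clones had been stained with 10% biotinylated, detergent-solubilized Sf9 membrane reagent for 1 hour at 4 °C and sorted by FACS into low and high (top ~1%) gates on anti-HA and streptavidin fluorescence. Polyreactivity labels come from the gate of origin.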
“QVQLVESGGGLVQAGGSLRLSFASSGSTFYYNAMGWYRQAPGKERDLVARISRSGGSTYADSVKGRFTISRDNAKNTVYFQMNSLKPEDTAVSYCNADAYGTPEFTSYAVRYDYGGQGTQVTVSS”: the “polyreactivity (PSR sort gate)” value is “low polyreactivity”.
To “QVQLVESGGGLVQAGGSLRLSCAASGNIFGLNAMGWYTQAPGKEREFVAAITKTGGSTYYADSVKGRFTISRDNAKNTVYLQMNSLKPEDTAVYYCAARGLPRGYPYEYGYWGQVTQVTVSS” belongs “high polyreactivity”; to “QVQLVESGGGLVQAGGSLRLSCAASGSTFILNAMGWYRQAPGKEWELVAAISRSGGNTYYADSVKGRFTISRDIAKNTVYLQMNSLKPEDTAVYYCAATRRSHYYYWGQGTQVTVSS”, “high polyreactivity”.
Regarding “QVQLVESGGGLVQAGGSLRLSCAASGRIFYNYVMGWYRQAPGKERELVAAISDSGGSTYYADSVKGRFTISRDNAKNTVYLQMNSLKPEDTAVYYCNKVRPRKFWDYYYWGQGTQVTVSS”, the “polyreactivity (PSR sort gate)” value is “high polyreactivity”.
In the case of “QVQLVESGGGLVQAGGSLRLSCAASGRIFTVYAMGWYRQAPGKERELVAAIDFSDGTTYYADSVKARFTISRDNAKNTVYLQMNSLKPEDTAVYYCAAEGGSALDDDYWGQGTQVTVSS” it was “high polyreactivity”; in that of “QEQLQESGGCPVLAGGSLRLSCAASGTIFVRLDMGWYRQAPGKEREFVATIGSGSSTYYADSVKGSFTISRDNVKNTVYLQMNSLKPEDTAVYYCAVSAAEQSRHYYWDQGTQVTVSS”, “low polyreactivity”; in that of “QVQLVESGGGLVQAGGSLRLSCADSGGTFGYYVMGWNRQAPGKERELVAAITSGGSTKYADSVKGRFTISRDNAKNTVYLQMNSLKPEDTAVYYCAADYPYYPFSSIYDYWGQGTQVTVSS”, “low polyreactivity”.
Turning to “QVQLVESGGGLVQAGGSLRLSCAASGRIITAYAMGWNRQAPGKEREFVAAINVSGGSTYYADSVKGRFTISRDNAKNTVYLQMNSLKPEDTAVYYCNADYYYYDIYWWKMDYWGQGTQVTVSS”, the “polyreactivity (PSR sort gate)” value was “low polyreactivity”.
In the case of “QVQLVESGGGLVQAGGSLRLSCAASGLIFGDYVMGWYRQAPGKERELVAAISNNGDSTYYADSVKGRFTISRDNAKNTVYLQMNSLIPEDTAVYYCNADGDRGGYVLTEHDSWGQGTQVTVSS” it was “low polyreactivity”; in that of “QVQLVESGGGLVQAGGSLRISCAASGSNFSIYAMGWYRQAPGKERELVATNYADSVKGRFTISRDNAKNTVYLQMNSLKPEDTAVDYCAADDLSYFWGDVPGDYWGQGTQVTVSS”, “low polyreactivity”.
As to “QVQLVESGGGLVQAGGSLRLSCAASGGIFRYAMGWYRQAPGKEREFVAAITTRGGSTYYADSVKARFTISRDNAKNTVYLQMNSLKPEDTAVYYCAARRYSGRNKYDYWGQGTQLTVSS”, the “polyreactivity (PSR sort gate)” value is on record as “high polyreactivity”.
For the sequence “QVQLVESGGGLVQAGGSLRLSCAASGRIFTSNTMAWYRQAPGKERELVAAITSSGGSMYYADSVKGRFTLSRDNAKNTVYLQIISLKPEDTAVYYFAGDTIGYHYWYDYWGQGTQVTVSS”, the “polyreactivity (PSR sort gate)” value is “low polyreactivity”.
On to “QVQLVESGGGLVQAGGSLRLSCAASGFTFNRNDMGWYRQAPGKERELVAAISTSGGRTYYADSVKGRFTISRDNAKNTVYLQMNSLKPEDTAVYYCAADGIYPVGVDYWGQGTQVTVSS”, for which the “polyreactivity (PSR sort gate)” value is given as “high polyreactivity”.
For the sequence “QVRLVETGGGLVQAGGSLRLSCAASGSTFPHYTMGWYIQAHGKERELVAVISRSGRTYYADSVKGRFTISRDNAKNTFYLQMNSLKPEDTAVYYCDVLVGRLVWSYNHWGQVTQVTVSS”, the “polyreactivity (PSR sort gate)” value is “high polyreactivity”.
In the case of “QVQLVESGGGLVQAGGSLRLSCAASGSTFDVYAMGWYRQAPGKERELVAALTSGGTTNYADSVKGRFTISRDNAKNTVYLQMNSLKPEDTAVSYCNARLTLRSYDYWGQGTLVTVSS” it was “low polyreactivity”.
To “QVQLVESGGGLVQAGGSLRVSCAASGSIFLIYGMGWYRQAPGKERELVAAITARGGSTYYADSVKGRFTISRDNAKNTVYLQMNSLKPEDTAVYYCNADGYPDVGAGTYGYWGLGTQVTVSS” belongs “low polyreactivity”; to “QVQLVESGGGLVQAGGSLRLICAASGFTFYNYAKGWYRQAPGKERQLVAAISTSGGSTYYADSVKGRFTISRDNAKNTVYLQMNSLKPEDTAVYYCAAQATAYSYAYYYWGQGTQVTVSS”, “low polyreactivity”; to “QVQLVESGGGLVQAGGSLRLSCAASGFTFWVYAMGWYRQAPGKEREFVAAISGIGDDTNYADSVKGRFTISRDNAKNTVYLQMNSLKPEDTAVYYCATVALRYYGVTEFDYWGQGTQVTVSS”, “high polyreactivity”.
Turning to “QVQLVESGGGLVQAGGSLRLSCAASGRIFYLNVMGWYRQAPGKERELVAAITRRDVTTYADSVKGRFTISRDNAKNTVYLQMNSLKPEDTAVYYCNAVYYNWIGFDYWGQGTQVSVSS”, the “polyreactivity (PSR sort gate)” value is “low polyreactivity”.
In the case of “QVQLVESGGGLVQAGGSLRLSCAASGSISYANALGWYRQAPGKERELVAAISGSGGSTYYADSVKGRFTISRDNAKNTVYLQMNSLKPEDTAVYYCAARGFPPGDEWHPYDYWGQGTQVTVSS” it was “low polyreactivity”; in that of “QVHLVESGGGLVQAGGSLRLSCAASGRNFDNKAMGWYRQAPGKERELVATLSRNGGSTYYADSVKGRFTISRDNAKNTVYLQINRLKRDDTAVYYCNKRTRFIPSFDYWGQGTQVTVSS”, “low polyreactivity”.
“QVQLVESGGGLVQAGGSLRLSCAASGLTFVTNAMGWYRQAPGKERELVAGISWSDGSTYYADSVKGRFTISRDNAKNTVYLQMNSVKPEDSAVYYCNAGVDLHYGYITYGVYGYDYWGQGTQVTVSS”: the “polyreactivity (PSR sort gate)” value is reported as “low polyreactivity”.
To “QVQLVESGGGLVQAGGSLRLSCAASGRTFGYYAMGWYRQAPGKERELVAAISTRSGSTYYADSVKGRFTISRDNAKNTVYLQMNSLKPEDTAVYYCAADSYPDYDYWGQGTQVTVSS” belongs “low polyreactivity”; to “QVQLVESGGGLVQAGGSLRLSCAASGSTLGYNAMGWYRQATGKERELVAGISRNGGSTFYADSVKGRFTISRDYAKYTLYLQMNSLKPEDTAVYYCARYYTHSGGFRVRIYYYWGQATQVTVSS”, “low polyreactivity”; to “QVQLVESVGGLVQAGGSHRLSCAASGSIFYYYDMGWYRQGPGKERELFAAINRGVGSTFYADSVKGRFTISRENAKNTVYLQMNSLKPEDTAVDYCSSRWYSRTRAYNYWGQGTQVTVSS”, “low polyreactivity”.
In the case of “QVQLQESGGGLVQAGGSLRLSSAASGTITVLYKMGWFRQPPGKQREFVASINYGTSTYYADSVKGRFTVSRDSAKKTVSLQMNSLKPEDTAVYYCAAAYRWQDVYRYWGQGTQVTVSS” it was “low polyreactivity”; in that of “QVQLVESGGGLVQAGGSLRLSCAASGNTFRYYAMGWYRQAPGKERELVAAISRNGGSTYADSVKGRFTISRDNAKNTVYLQMNSLKPEDTAVYYCNAYRIRPGTPYGKGYYYWGQGTQVTVSS”, “high polyreactivity”; in that of “QVQLVESVGGLDQAGGSLRFICASSAHTISSYAMGWYRQAPGKERELVAAISVSATRTYYADSVKGRFTISRDNAKNTVYLQMSSLNPEDPAVYYFAARPVQFTYGYWGQGTQVTVSS”, “high polyreactivity”.
As to “QVQLQESGGGLVQAGGSLRLSCAASGYIFPRIYMGWYRQAPGKEREFDAGISYDAITNYADSVKGRFTISLDNAKNTVYLQMNSLKPEDTAVYYCAVSYYGTPLFTYWGQGTQVTVSS”, the “polyreactivity (PSR sort gate)” value is recorded as “high polyreactivity”.
In the case of “QRQLVESGGGLVQAGGSLRLSCAASGIIFQGYAMGWYRQAPGKERELVAAISHHADSTYADSVKGRFTISRDNAKNPVYLQMNSLKPEDTAVYYCNADTPVRSDYWGQGTQVTVSS” it was “low polyreactivity”; in that of “QVQLVESGGGLVQAGGSLRLSCAASGSTFTFNAMGWYRQAPGKERELVAAITSRGGSTYYADSVKGRFTISRDNAKNTVYLQMNSLKPEDTAVYYCAATLRGQKTRREYWGQGTQVTVSS”, “high polyreactivity”.
To “QVQLVESGGGLVQAGGSLRLSCAASGYIFWFNAMGWYRQAPGKERELVAAITSSDASTNYADSVKGRFTISRDNAKNTVYLQMNSLKPEDTAVYYCAKSSYPRDGYESWGQGTQVTVSS” belongs “low polyreactivity”; to “QVQLVESGGGLVQAGGSLRLICAASGGIFYFNAMGWYRQAPGKERELVASITWSGGNTYYADSVKGRFTISRDNAKNTVYLQMNSLKPEDTAVYYCAADTQEYRPTYDYWGQGTQVTVSS”, “low polyreactivity”.
Turning to “QVQLVESGGGLVQAGGSLRLSCAASGSTFPYYAMGWYRQAPGKERELVAAISSSGSRTYYADSVKGRFTISRDNAKNTVYLQMNSLKPEDTAVYYCAADNAAQPYPAGMDYWGQGTQVTVSS”, the “polyreactivity (PSR sort gate)” value was “low polyreactivity”.
Consider “QVQLVESAGGLVQAGGSLRLSCAASGTIFALYAMGWYRQAPGKERELVARITRGGGSTYYADSVKGRFTISRDNAKNTVYLQMNSLKPEDTAVYYCAAARWSQYRTWMNYWGQGTQVTVSS”, for which the “polyreactivity (PSR sort gate)” value is reported as “high polyreactivity”.
To “QVQLVESGGGLVQAGGSLRLSCAASGFTFRYYAMGWYRQAPGKERELVAAITGSGGRTYYADSVKGRFTISRDNAKNTVYLQMNSLKPEDTAVYYCARDVDPRGRYYWGQGTQVTVSS” belongs “high polyreactivity”; to “QVQLVESGGGLVQAGGSLRLSCAASGFIFSTNAMGWYRQAPGKERELVAAISRRGGNTYYADSVKGRFTISRDNAKNTVYLQMNSLKPEDTAVYYCNAVFRSGGLDYWGQGTQVTVSS”, “high polyreactivity”.
“QVQLVESGGGLVQAGGSLRVSCAASGRILPRYAMGWYRQAPGKEREFVARIDSGGSTNYADSVKGRFTISRDNAKNTVYIQMNSLKPEDTAVYYCAAVGTAQAYAYFTYGYDYWGQGTQVTVSS”: the “polyreactivity (PSR sort gate)” value is on record as “low polyreactivity”.
In the case of “QVQLVESGGGLVQAGGSLRLSCAASGRTFPIYAMGWYRQAPGKERELVAAITRGGRTNYADSVKGRFTISRDNAKNTVYLQMNSLKTEDTAVYYCAARSYGTYLYAEYDYWGQGTQVTVSS” it was “high polyreactivity”; in that of “QVQLVESGGGLVQAGGSLRLSCAASGSTFTYYAMGWYRQAPGKERELVAAINYSGGSTYYADSVKGRFTISRDNAKNTVYLQMNSLKPEDTAVYYCAADGYIRQYVTYYYWGQGTQVTVSS”, “low polyreactivity”; in that of “QVQLVESGGGLVQAGGSLRLSCAASGSIVYYYGMGWYRPAPGKETELVAAISTGGSTYYADSVKGRFTISRDKAKKTVYLQMNSLKPEDTADFYCSADYYTQWQTRYDYWGQGTQVTVSS”, “low polyreactivity”.
